Assay [1] has as its target SARS-CoV-2刺突S1亚基蛋白(Sino公司，货号:40591-V02H) (SARS-CoV-2, UniProt P0DTC2 16-685).
The target in assay [2] is T1, SARS-CoV-2刺突S1-His重组蛋白(Sino公司，货号:40591-V08H) (SARS-CoV-2, UniProt P0DTC2 16-685).
T1 construct: domain: S1; also called S1蛋白; 刺突蛋白S1
Description: ELISA; S1-His coated at 1.0 μg/mL, goat anti-human IgG-HRP detection.

The term IC50 denotes the midpoint of a concentration-inhibition curve. A high value points to a need for much substance. For orientation: EC50 means the concentration needed to bring the measured effect to its halfway point. Low values mean higher potency in that assay, high ones lower potency in that assay.

B1: 抗SARS-CoV-2的单克隆抗体2B11 (antibody, V domains shown)
VH: EVQLVESGGGLVQPGGSLRLSCAASEITVSSNYMNWVRQAPGKGLEWVSVIYSGGTTYYADSVKGRFTISRDNSENTLYLQMNSLRAEDTAVYYCARDLMEVGGMDVWGQGTTVTVSS
VL: LPVLTQPPSASGTPGQRVTISCSGSSSNVENDNVNWFQQQVPGSTPKLVIYNDRLRPSGVPDRFSGSKSGTSAYLAISGLQSEDEADYYCVAWDASLQSYVFGTGTKVTVL
notes: also called 2B11抗体; 人源抗SARS-CoV-2抗体2B11
For B1, the IC50 in assay [1] was 2.79 nM. The molecule also showed an EC50 in assay [2] of 0.051 nM.
